The text below walks through data of patent US10851401B2, “Broth microdilution method for evaluating and determining minimal inhibitory concentration of antibacterial polypeptides” (priority 2016, dated 2020).

Broadly, the MIC90 is an inhibitory concentration at the 90% level, which refers to growth in some studies and to a panel of isolates in others. Low values mean higher susceptibility, high ones lower susceptibility.

The subject of the assay is 223 contemporary clinical MSSA and MRSA strains. The assay is described as follows: First modified (stopgap) BMD method: polypropylene plates, MHBII with 1 mM DTT. The following applies: MHBII supplemented with 1 mM DTT. Type of assay: cell-based, Staphylococcus aureus. How it is done:
Two modified BMD methods were initially developed to test PlySs2/CF-301. In the first method, the major modifications were that polypropylene plates were used and MHBII was supplemented with 1 mM DTT. DTT (DL-Dithiothreitol) is a common molecular biology reagent used to keep enzymes in a reduced state. […] This procedure was a stop gap because of the use of polypropylene, a remaining disconnect from human blood MIC values, and problems with frozen panels.

B1: CF-301: bacteriophage lysin polypeptide derived from a Streptococcus suis prophage, amino acid sequence of FIG. 1 / SEQ ID NO: 1; 26 kDa bacteriolytic enzyme (protein, listed as Streptococcus suis)
chain: MTTVNEALNNVRAQVGSGVSVGNGECYALASWYERMISPDATVGLGAGVGWVSGAIGDTISAKNIGSSYNWQANGWTVSTSGPFKAGQIVTLGATPGNPYGHVVIVEAVDGDRLTILEQNYGGKRYPVRNYYSAASYRQQVVHYITPPGTVAQSAPNLAGSRSYRETGTMTVTVDALNVRRAPNTSGEIVAVYKRGESFDYDTVIIDVNGYVWVSYIGGSGKRNYVATGATKDGKRFGNAWGTFK
As for B1, the MIC90 was 8 µg/mL and the MIC range was 1 to 16 µg/mL.
